Measured values: paper PMC4978566

Target: A/California/04/2009 H1 (influenza A virus A/California/04/2009) (UniProt C3W5S1)
Experiment: crystal structure

Substance: A/California/04/2009 H1 (from UniProt C3W5S1 18-520) (natural protein)
- stoichiometry N: 2
